Columns and labels:
[1] = molecular target: GSK-3beta (Homo sapiens, UniProt P49841); details: cited from earlier work
[2] = molecular target: CDK-5 (Homo sapiens, UniProt Q00535); details: cited from earlier work
[3] = tested on: BDTK promoter (CpG1.2-luciferase) in HEK 293 cells; assay: CpG1.2-luciferase BDTK promoter reporter assay in HEK293 cells; format: cell-based, human; details: A-beta 1-42 0-30 μg/ml, 24 hours
Description: A luciferase assay was used to determine promoter activity. To conduct this assay, 1.2 kb and 0.6 kb promoter sequence were inserted into pGL3-control vector (Promega, named as CpG1.2 and CpG0.6, respectively). The luciferase constructs were co-transfected with reference reporter gene (thymidine kinase promoter TK-RL plasmid, Promega) into PC12 and HEK293 cells using lipofection method (GenePorter, Gene Therapy Systems, Inc.). At 48 hours after DNA transfection, each luciferase activity was measured using Dua1-luciferase kit (Promega). […] CpG1.2-luciferase vector was tested for its promoter activity by increasing dose of extracellular beta-amyloid peptide (A-beta) 1-42 (0-30 μg/ml) for 24 hours. CpG1.2 luciferase activities (PC12-CpG or HEK-CpG) are 8- to 10-fold higher than control activities (PC12-control or HEK293-control) without beta-amyloid stimulation.

[4] = molecular target: T1, BDTK (Homo sapiens, UniProt Q5TCY1); assay: BDTK-mediated tau phosphorylation in vitro; format: biochemical
T1 construct: made in house
T1 sequence (Q5TCY1 38-319): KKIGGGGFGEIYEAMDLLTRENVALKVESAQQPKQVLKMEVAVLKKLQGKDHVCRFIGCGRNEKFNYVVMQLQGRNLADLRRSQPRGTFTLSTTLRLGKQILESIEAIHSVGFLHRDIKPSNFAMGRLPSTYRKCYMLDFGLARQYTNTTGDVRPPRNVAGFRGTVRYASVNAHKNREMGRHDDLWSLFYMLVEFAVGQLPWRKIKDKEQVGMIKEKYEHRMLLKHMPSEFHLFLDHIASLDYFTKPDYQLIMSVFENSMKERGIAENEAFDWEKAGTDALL

[5] = molecular target: T1, BDTK; assay: BDTK phosphorylation (autophosphorylation) in vitro; format: biochemical
Description: Purified recombinant human tau (Calbiochem) was phosphorylated by purified BDTK(38-319) and BDTK(52-319) in vitro. Briefly, 1 μg of tau protein and 1 μg of BDTK mutants were incubated in buffer A (50 mM Tris-Cl, pH 7.5, 5mM Mg acetate, 1 mM EDTA, 1 mM DTT, 0.1 mM ATP, 2 μCi [γ-^32P]ATP) or buffer B (100 mM Mes-Na, pH 6.5, 5 mM Mg acetate, 1 mM EGTA, 1 mM DTT, 0.2 mM ATP, and 2 μCi[γ-^32P]ATP). The reaction was stopped at 30, 60, 120, and 180 minutes by addition of Laemmli sampling buffer. Samples were then subjected to SDS-PAGE and autoradiography.
An assay was conducted to identify promoters and inhibitors of BDTK activity. BDTK peptides may be used to inhibit BDTK activity. Two synthetic peptides (N21: […] (SEQ ID NO:21) and AA21: […]) (SEQ ID NO:22) are synthesized to test if N21 and A21, where conserved two glycine residues are substituted with alanine, has inhibitory effect of BDTK kinase activity in vitro. Increasing amounts of peptides (0-1 mM) were tested for BDTK and tau phosphorylation, in vitro. […] AA21 mutated peptide increased both BDTK (AA21-BDTK, from 30 to 300 μM) and tau phosphorylation (AA21-tau, from 30 μM to […]) in dose response manner.

Sequence of GSK-3beta (P49841 whole entry, species assumed): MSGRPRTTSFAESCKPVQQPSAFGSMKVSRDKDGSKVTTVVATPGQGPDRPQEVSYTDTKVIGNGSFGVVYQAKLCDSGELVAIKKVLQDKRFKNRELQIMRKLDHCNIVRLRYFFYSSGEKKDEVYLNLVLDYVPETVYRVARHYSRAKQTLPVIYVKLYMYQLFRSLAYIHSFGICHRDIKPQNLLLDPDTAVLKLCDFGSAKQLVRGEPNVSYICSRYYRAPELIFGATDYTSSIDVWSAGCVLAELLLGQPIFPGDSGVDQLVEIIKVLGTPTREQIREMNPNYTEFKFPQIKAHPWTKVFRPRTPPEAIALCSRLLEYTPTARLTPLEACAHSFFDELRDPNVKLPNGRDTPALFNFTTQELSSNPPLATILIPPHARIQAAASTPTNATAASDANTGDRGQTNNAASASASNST
Sequence of CDK-5 (Q00535 whole entry, species assumed): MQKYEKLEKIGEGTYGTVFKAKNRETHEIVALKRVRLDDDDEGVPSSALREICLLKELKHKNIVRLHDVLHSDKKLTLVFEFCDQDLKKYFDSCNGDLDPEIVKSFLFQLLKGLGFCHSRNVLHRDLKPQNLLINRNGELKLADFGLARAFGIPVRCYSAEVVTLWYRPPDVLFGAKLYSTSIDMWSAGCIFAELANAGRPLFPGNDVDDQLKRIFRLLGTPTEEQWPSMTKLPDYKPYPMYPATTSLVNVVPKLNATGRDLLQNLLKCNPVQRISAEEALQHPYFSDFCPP
Sequence of CDK-5 (Q15078 whole entry partner, species assumed): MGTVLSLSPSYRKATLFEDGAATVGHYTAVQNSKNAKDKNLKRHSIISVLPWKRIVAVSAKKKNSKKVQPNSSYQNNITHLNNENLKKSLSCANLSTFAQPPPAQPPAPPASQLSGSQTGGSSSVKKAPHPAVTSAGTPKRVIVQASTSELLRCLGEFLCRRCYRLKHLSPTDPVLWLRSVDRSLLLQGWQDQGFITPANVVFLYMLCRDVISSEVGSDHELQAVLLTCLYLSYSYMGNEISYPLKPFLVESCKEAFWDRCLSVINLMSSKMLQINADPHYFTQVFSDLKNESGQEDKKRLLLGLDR

CC(C)[C@H](CO)Nc1nc(Nc2cccc(Cl)c2)c2ncn(C(C)C)c2n1 [puralanol A]
IC50 [1]: 13 µM
IC50 [2]: 0.075 µM

Beta-amyloid: extracellular beta-amyloid peptide (A-beta) 1-42
effect on CpG1.2-luciferase activity [3]: weakly stimulated

KDRWKVVKKIGGGGFGEIYEA [N21]
effect on tau phosphorylation (N21-tau) ([4]; peptide from 300 μM to 1 μM): partially inhibited
inhibition of BDTK phosphorylation ([5]; peptide 100 μM-1 mM): up to 70%

KDRWKVWKKIAGAGFGEIYEA [AA21]
effect on tau phosphorylation (AA21-tau) ([4]; peptide from 30 μM to 1 μM, dose response manner): increased
effect on BDTK phosphorylation (AA21-BDTK) ([5]; peptide from 30 to 300 μM, dose response manner): increased

Source: patent US7521230B2, “Nucleic acid encoding a Brain Derived Tau Kinase polypeptide and methods of use thereof” (Board of Regents of the University of Nebraska, priority 2002, dated 2009)
